Measurements taken from US20200181259A1.
Like-named read-outs stand apart in the source and are kept apart here.

Experiments:
[1] = biological target: human CD47 overexpressed on CHO cells (human) (UniProt Q08722); assay: flow cytometry competition on CHO-hCD47 cells against 200 nM mouse Fc-labelled SIRPα
[2] = biological target: human CD47 overexpressed on CHO cells (human) (UniProt Q08722); assay: as above; remark: listed apart in the source

IC50 [1]: 3.38 nM
IC50 [2]: 1.77 nM
B1: AB6.12, control humanized anti-CD47 antibody transiently expressed in 293 HEK cells (antibody, from another filing, V domains shown)
VH: QMQLVQSGAEVKKTGSSVKVSCKASGFNIKDYYLHWVRQAPGQALEWMGWIDPDQGDTEYAQKFQDRVTITRDRSMSTAYMELSSLRSEDTAMYYCNAAYGSSSYPMDYWGQGTTVTV
VL: NIQMTQSPSAMSASVGDRVTITCKASQDIHRYLSWFQQKPGKVPKHLIYRANRLVSGVPSRFSGSGSGTEFTLTISSLQPEDFATYYCLQYDEFPYTFGGGTKVEIK
